# In a protein production outcome set (Wang et al. 2014):
# Assay: label from the status in PepcDB records
row,Sequence,protein production
1,MAPCLENVACVNLSAMPPAPPSPQPVSHKQAATLCRQGRTCALKSGSNESGGSVTSTYTSYRLISQDIGKSLERVSKQPDVARETEYYREKIGSVKSIDDFMADTRLYNYALKAHGLEDMAYAKAFIRKVLTEGASDKNAFANKLSDNRYAELAKSLDFAGLGAAATATEAAKSGVIGNYARQTLEQEAGDDNNGVRLALYFERKAPTIKSGLDFLADDALAQVFRTTFNLPDAFAAADVDKQAALIEKSINIKDLQDPEKVGKLLERFTIMWEMQNPSTTYDPLAVFGSSSGYGISPDLLISINSLKLGGKLEHHHHHH,not failed
2,METRYNLKSPAVKRLMKEAAELKDPTDHYHAQPLEDNLFEWHFTVRGPPDSDFDGGVYHGRIVLPPEYPMKPPSIILLTANGRFEVGKKICLSISGHHPETWQPSWSIRTALLAIIGFMPTKGEGAIGSLDYTPEERRALAKKSQDFCCEGCGSAMKDVLLPLKSGSDSSQADQEAKELARQISFKAEVNSSGKTISESDLNHSFSLTDLQDDIPTTFQGATASTSYGLQNSSAASFHQPTQPVAKNTSMSPRQRRAQQQSQRRLSTSPDVIQGHQPRDNHTDHGGSAVLIVILTLALAALIFRRIYLANEYIFDFEL,failed
3,MNSPWETESGDRRVESGAGVSVGGRGQSRPRSCSIKAAEGKKGRSSACAPRWRLRSALLREDRCRSAPRIPRGCFSPRAPWRGGNSCAHCPRPRSGRPETGRAWGSRRAPRRGRPPAHGAPRPLPGLPRAASDRWAPARTSLIFILCPRGCLLLSARTLGIPWQPTSLRSRPTSLSPASCATQRASSWACSSASIETRPLNFFISYDAPPLRTRTIKLLVTFLVEEVSRNGAAKQEQFQETLYFTHLPRDKRLQKELLALQNDPPPGMTLNEKSVQNSITQWIVDMEGAPGTLYEGEKFQLLFKFSSRYPFDSPQVMFTGENIPVHPHVYSNGHICLSILTEDWSPALSVQSVCLSIISMLSSCKEKRRPPDNSFYVRTCNKNPKKTKWWYHDDTC,failed
4,MSSHPPIRSYVLRQGYFSNAQRHAYESLLPRYGIPLTEEPVDLDSIFGRTAPGILEIGSGMGETTAEIARQHPEKDFIAIEVHAPGIGSLLGQIEKHRLTNLRIIPHDAKLVLQQMFTSESLDGIHIFFPDPWPKARHHKRRLIQPDFVSLLCDRLKPGGYLHIATDWEDYATHILHVLRSEERFVNTAVDYAARPAYRPLTKFEQRGMKLGHTIRDIIFTRTALEHHHHHH,failed
5,MIYSKVENFINENKQNAIFTEGASHENIGRIEENLQCDLPNSYKWFLEKYGAGGLFGVLVLGYNFDHASVVNRTNEYKEHYGLTDGLVVIEDVDYFAYCLDTNKMKDGECPVVEWDRVIGYQDTVADSFIEFFYNKIQEAKDDWDEDEDWDD,not failed
6,MSVALPRSPDVDGSLSEAPNRIDVVTFGCRLNTYESEVMRREAESAGLGALQGGAVIFNTCAVTGEAVRQARQAIRKARRDNPGARIIVTGCAAQTEPEKFAAMDEVDLVLGNEEKLKANSYRALPDFGVNDTEKARVNDIFSVRETAGHMVDAIEGRARAFVQVQNGCDHRCTFCIIPYGRGNSRSVPMGAVVEQVKRLAGNGYAEIVLTGVDMTSFGADLPGAPKLGRLVKTILKQVPDVKRLRLSSIDSIEADDDLLDAIATEPRLMPHLHLSLQSGDDMILKRMKRRHLRDQSIRFCEDVRKLRPEIVFGADIIAGFPTETDAMFENSIKIVEECGLTHLHVFPFSPREGTPAARMPQVRREVVKQRAARLRAAGEAAYRRHLSSLPGTRQSILIERDGLGRTEGFTLAALGTGAPGEIVEATITGHDGARLNAVPLAARAA,failed
7,MVKGLVVAGALLMASGCQMLQSMMPAGDEEMPRVREGTLAALPATETRQVQGIEAGSGPTDDVSIETVMESYKALLPLVDDPRKQVTIRHRLADLEFQRAERKMADTAVDELAGAIEAYQRLLSEYPEREGNDKIYYQLARAWELRGATPQQLDTLDTLVRRYPDSDYWIEAQFRRGDLLFIDGRYREAEQAFDEVTLASQERMADASFLVNAHYMKGWSLFKQAQYQEALFSYVEVLDLVMPEGQPVEDVDQRSQTLIEDLFRVVGLSLSYLDGAETLQALFRQTGGRPYEILVYDRYSELLVEREQYGDAIDVFEAYIEDHPASPWAPRYHIRIIDTLELAGFTRTVPERKADFVSLYGIYSDYWQSAGPDAMGFIEQQLEQLLPELADRQYLLAGESSDQQQADDHYRKAASYYAEFAATFPDHPRTPERLFLLGETYLELEDWAEAIAAFERVAYDYPQDTVSGRAAEAGYASVLAFREYSITWNSLPISEQAAYQELQQLNRLRFANAFPEDPRAPAVYYIALQHEFDRNNWEETVNMAARLVTWQPTPSAELTTEALLLSGHSLSELARYSEAEQAYRDALATMAEDDERRSGVRENLAAAVYRQAEQLADAGNVEAAVGEFLRVGTVVPESALRANAEYDAASLLITANLWEQAIGVLTSFRQAFPDHELIDTVPAKLALAYRETAQWERAADELQQMVALATTPEERRENLLIAAELYDQAGNRDKAIDTWRNYANSHPEPADVYMEAANRLAELYQEADDTVKRDYWLRKQMETVDRNPDAADDRMRYLAASASATLAREALARYDSIRLTLPLNESMTAKTDALERAVNAYKKTASYGLSSFATEAGYQIAHIYGRLGADLMDSERPTGLSELELAQYELLLEEQAYPFEDNAIDIHEQNIRRAREGIFDEWVKRSYEALKVLLPGRYRKEEVTSGVVYELD,failed
8,MNALGTKARVVGTGVLVLGLLSGCTTAAPSPSSPTPTQATPTQAASSNAGPGPASSAAVPAQQSAEAKLSPEAQIETDRLLILAAKANDAAKVRELIAAGGNVNAKDEIQDSAFLYAGAEGFNEVLQLTLAAGADVRSTNRYGGTALIPASEHGHTETVRILIAAGVPVDHVNNLGWTAMQEAILPNNGGPNQQDVVRQLLAAGATPDIRDPQGRTALQNAERLGFTEIAALIRNR,failed
9,MKRKQESKGAGEKRQGAGGRGQGEKKQGKQGRQGRQGRQGEKSPVPSPQSPIPNPQFTTPNPDEWLQIGKIVSAQGLSGEVRVYPDSDFPERFEVPGTRWLLRPGQTEPQPIELLHGRYLENKNLYVLQLAGVENRSQSEELRGCMLFVPASDRPELGEDEYHVVDLIGMEVFLQASGDLVGAVVDVIPAGNDLLEVSLHEPVTSDKKPKTVLIPFVKAIAPVVDLQTRRIEITPPPGLLELGSGV,failed
10,MTIYSPDTINFNGVSGDRYWFDEPFPYTGVADIDERLSGFPVAVFLPHHRPRQETPLVIGLQGMCAPYGWNAFIVPILIEMGIAVALFDPPLSGERSLVRTSTTLVQNEIKPLIDRGIPFDTALFLSIFRTTARDIGKIREFCGDRYGLTDSRLALFGVSMGVLLSAYAFTANSLGDRLLGTIGHADLPSFAKSWGRPFLPDLAASPLGGLAESLLQRLQPDLAPLFNLLRLTKNLKYQDEYAWDCNPMNYIQQVESHRRVRFLIGANDSIVKIKDARACAQKFPDGDCYIVPGMGHGTRQSGVSFVDHVRYFLATQLGDWRG,failed
11,MFRSSRRQAAFDFDLLMPETPARRTARAANPDRDVVDAEFVTIKENRVRQPGNDNRGAARRQMVKPSVTIGALGLAFIGWLDRRLSRLSADAYSALVAGLAIFVFVCSGGLSVVVPETSAVAASVNPLAISHVTITPQEAGGMDILLINGIVENNGGNLEEVPALRADLFAAKGQLVASMVIEPPVKEMQPGFSHGFSAKLRHPGGKTPEIKLSFVEAGASAR,failed
12,MNLKAMDAILEDCCDIVCSDYLPSAMIKSMCIVAERINNLNKAVSLFTSNPAKAVGIYDERGSIKENKKADLVLVDIDSEYPKVVNTIVNGKTVYKRELEHHHHHH,failed
13,MSLENKENLVVIDLAIAEDSIQKKNIVYDKNGQNHFDVISAFIKSIRGSDPDATLYWLANMVEAGEDPNFIFRRLLISACEDIGLADPNAIVVVQSCCDAFDRVGFPEGLFFLSQASLYLAISPKSNSTKSIFKAMEAIKATNVSLVPNHLKNNASNYLNPHNYQGKWLQQEYLPTDLQGIKFWKPKDSGWEKNKYEDLPKKQKSEGHHHHHH,not failed
14,EDRNFVYLKRQVPMDVADKIKQMALPGIHQQPESRRYYPEGEVTAHIVGFNNVEDQGQEGVELTFNQQLSGQPGSRRVIKDRLGRVIEDVQAVTLPVDGRDLRLSID,failed
15,MGNQFSINRNRPANAGEAHASSTEAKPAPDAASPSRQVRVATAPSILEGLRKLRLPFNFGARVPPLPEETWAEIARRVDTKTLHRMRAVSKTLKAAADTEIRQLTVNTVEALQAAKRYACLETLKMDGYFGDADLEGLPASLRELDLFSTRYVSAKGLAHLSKLPLVRLKVRANGIHAEAARALAASTTLTALDIRGNGIGDAGAQALAANTSITSLDASFNDIGVAGARALAANTTLTSLDLGFNAIGDEGLQALATNTSLTSLTVGSCEIGDAGAAALANNTALTSVDLTCNHIGEEGAEGLAANTVLTSLDLTRNSISDRGAAALAGNTTLTSLCVNFNDIYGRGARWLAENTTLTTLDISYNPIGDWGALGLADNMTLRSLSVVAGRIGVEGARALAGNTTLTTLDISVNAIGNEGAQALAANATLTTLSLRSCELRAAAAEAFKANTTLASLDIGENRIEAAGAQALADNTALTTLRVTGNQIGMAGAQALAANRSLTKLNISQNDIRSAGAQALAANTSLTSLDVSSASIGAAGAQALAANTSITWLNINDNHIGDAGAQALAAHPALTSLYACDNFIGTAGVQALAANTRLTSLSIWGNRIGDAGVKALAANTTLTKLTIGKRVDKQLGEQIGDLAWQELMASVDRSGMTFHSL,failed
16,MSATLQDHTVAFRDPALTDIARAIAHGDVARIKALAPTVDLAAHGDQNVTLLEWAIWNEQPRALAALLDAGADPSLPGMDQETVVHMAAMAQDPEYLQILLQHKAPIDVVSARAGWTPLFRAMQSKRDAQIDLLIKAGADVQRVDHTGNSLLHLAAQSGAASPAVLTLLNAGVDPAVRNAQQKTFQAYFFTTPDRLLNASGQQVRSEVRAWLNAHNIPVESSR,failed
17,MAFQLHPRLQQDCIVLGNLPLCKVLLIKEDIGPWLILVPRIEELKEIHHMTDEQQIQFIKESSAVAQLLEDNFSPDKINIGALGNLVPQLHIHHIARFTTDVAWPGPVWGNTTGVIRAQSSQTQLVDLLRDKLSNISGFKRLEHHHHHH,not failed
18,MVNTRTRMSAIVATLGLVGSLALATASADESRTSGSAAQIALTEVARAQNPTAGAAGPQDTVWIAERAGTVRVLGDDGLGEPVLDISDETTTDGERGLLGLAFDERFAHLYLSYTDLEGTSTVDEFAVQDGTVREDTRRTVLTQEQPESNHNGGAITFGPDGYLYIALGDGGGGGDPQGNGQKLDTLLGKLLRIDPQGGDPYAIPEDNPFADDPDARGEIWSYGLRNPWRFSFDAGSGDLLIGDVGQSDWEEIDWAPASSPGGENYGWSQMEGTHPFRGGTEPANHVPPIHEYDRTGLGCSVTGGYVYRGEAVPGLAGQYVYSDYCDGTLRSLEIEDGRVTGEHDLGVNGGEVVSFAQDGDGELYVLAIGGTVSRVDPA,failed
19,MMNYKQLLIDNFAFKTSYVAQFVPGMSIKETKDYIAVDCGLPADTFNIITLLNNNLTEGVEKLYKEVEYYNQKKFPMSVWLWDEEQERDIKSELNKIGLKEAEQNIAMVADLKTISPTINMPVSFTIQQASSPGLIKKFGETLANLFGTSEEAIHVQAFYNQISNLDLWNSENMKLFLGFYEGEIVTVGSLICSKDSIGIYDIATKEEMRGRGFGSTMFNFLLQEAQKFKNTYCVLQASTDGINIYKKSGFQAIGKMTVLENRHVIE,failed
20,MSQEDITGKDRLQELIGADYRLQWIIGHGGMSTVWLADDVVNDREVAIKVLRPEFSDNQEFLNRFRNEAQAAENIDSEHVVATYDYREVPDPAGHTFCFIVMEFVRGESLADLLEREGRLPEDLALDVMEQAAHGLSVIHRMDMVHRDIKPGNMLITANGIVKITDFGIAKAAAAVPLTRTGMVVGTAQYVSPEQAQGKEVTAASDIYSLGVVGYEMMAGRRPFTGDSSVSVAIAHINQAPPQMPTSISAQTRELIGIALRKDPGRRFPDGNEMALAVSAVRLGKRPPQPRTSAMMAQAEAPSPSESTAMLGRVARPATITQEAAPKRGSGIGIGLFIAALLAVIIGAVIYAGTTGILFNDTPEETTTPETITETYTPTVEETTSQWVPPTPPTRSTFTEPETTSHRPTTSEESTSEEPTTEAPTSSRTVPQIPTSTPRTSASVPVETNAPADDLIDAVNGLLDVGGAQ,failed
